Assay results: US20220289791A1, “LACTATE DEHYDROGENASE INHIBITOR POLYPEPTIDES FOR USE IN THE TREATMENT OF CANCER” (UNIVERSITÉ CATHOLIQUE DE LOUVAIN, priority 2019, published 2022)
*1 amine or outer side, *2 acyl side, *3 side chain or, on linkers, in order; H or OH if unused. Where a SMILES comes first, the peptide text is derived from it. Bridges are numbered along the chain shown (N, C = ends). Where no end group is shown, it is not given here. [ ]: non-standard residue; d: D form. α,α'‑bisbromoxylene = α,α'-bisbromoxylene, a linker that cyclises the cysteines (bisbromoxylene cysteine cyclisation); C6F4(1,4-diyl) = Fc1c(F)c([*:2])c(F)c(F)c1[*:1]; mXylylene = c1cc(C[*:1])cc(C[*:2])c1; oXylylene = c1ccc(C[*:2])c(C[*:1])c1; pXylylene = c1cc(C[*:2])ccc1C[*:1]; Ala(cPr) = N[C@@H](CC1CC1)C(=O)O; tBuAla = CC(C)(C)C[C@H](N)C(=O)O; Aib = CC(C)(N)C(=O)O

How the values were obtained:
truncated LDHB (LDHBtr) = truncated LDHB (LDHBtr) (Homo sapiens, UniProt P07195); test: Microscale thermophoresis (MST), Example 2, macrocycles against truncated LDHB; assay type: binding; details: for Kd: MST traces at 10 s to 20 s on time
Chain of truncated LDHB (LDHBtr) (P07195 21-334): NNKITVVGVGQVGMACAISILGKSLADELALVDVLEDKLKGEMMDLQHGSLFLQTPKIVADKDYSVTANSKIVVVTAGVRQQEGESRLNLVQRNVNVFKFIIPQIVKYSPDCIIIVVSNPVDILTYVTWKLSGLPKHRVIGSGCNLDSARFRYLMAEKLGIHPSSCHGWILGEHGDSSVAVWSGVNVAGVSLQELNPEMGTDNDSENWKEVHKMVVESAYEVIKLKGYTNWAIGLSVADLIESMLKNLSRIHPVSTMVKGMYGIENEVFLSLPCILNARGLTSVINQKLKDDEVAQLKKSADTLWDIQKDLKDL
Procedure: MST measurements were performed on a Nanotemper Monolith NT.115 instrument (NanoTemper Technologies®) using Red-dye-NHS fluorescent labeling. Each LDH sample, purified to homogeneity, was labeled with the Monolith Red-dye-NHS 2nd generation labeling dye (NanoTemper Technologies®), according to the manufacturer's instructions. Measurements were performed in 50 mM sodium phosphate, pH 7.6, and 100 mM NaCl containing 0.05% Tween-20 in premium-treated capillaries (NanoTemper Technologies®). The final concentrations of either labeled protein in the assay were 100 nM. The ligands (NADH and peptides) were titrated in 1:1 dilutions following manufacturer's recommendations. All binding reactions were incubated for 5 min at room temperature after loading into capillaries. Experiments were performed in triplicates using 40% LED power, medium MST power, Laser On time 20 s and Laser Off time 3 s. Peptides were evaluated for their thermophoretic pattern, and Kd's were extracted from raw data at a 10 to 20 s MST on time according to manufacturer's instructions. Regarding interaction of 7 with LDH5, Kd was extracted from the raw fluorescence. A denaturation test was performed accordingly to manufacturer recommendation and excluded any nonspecific spectral interaction between 7 and the red-dye. All Kd's of interacting macrocycles and peptides were obtained in triplicate and corrected by taking into account the molecular weight of the TFA counter ion.

LDHBtr [1] = target: T1, LDHBtr (Homo sapiens, UniProt P07195); test: Microscale thermophoresis (MST), Example 1; assay type: binding; details: linear peptides; read-out: Kd using MST experiment
T1 sequence (P07195 21-334): as above
Procedure: MST measurements were performed on a Nanotemper Monolith NT.115 instrument (Nanotemper Technologies®, GmbH) using Red-dye-NHS fluorescent labeling. Each LDH (WT or truncated) sample, purified to homogeneity, was labeled with the Monolith RED-NHS 2nd generation labeling dye according to the supplied protocol (Nanotemper Technologies®, GmbH). Measurements were performed in 50 mM Na-Phosphate pH 7.6 and 100 mM NaCl containing 0.05% Tween-20 in premium treated capillaries (Nanotemper Technologies®, GmbH). The final concentrations of either labeled protein in the assay were 100 nM. The ligands (NADH and peptides) were titrated in 1:1 dilutions following manufacturer's recommendations. All binding reactions were incubated 5′ at room temperature after loading into capillaries. Experiments were performed in triplicates using 40% LED power and medium MST power, LaserOn time was 20 sec, Laser Off time 3 sec. Linear octapeptides were evaluated for their thermophoretic pattern.

LDHBtr [2] = target: T1, LDHBtr; test: NMR WaterLOGSY binding screening
Procedure: All experiments were acquired on a Bruker Ascend Avance III 600 MHz equipped with a broadband cryoprobe (Bruker® GmBH, Germany)
NMR WaterLOGSY was performed on samples prepared in 10% D2O buffer containing 50 mM sodium phosphate buffer, pH 7.6 and 100 mM NaCl. The concentration of LDH subunits was 15-20 μM. Ligand binding was detected using a NMR WaterLOGSY ephogsygpno.2 advance-version sequence with a […]. Water signal suppression was achieved using excitation sculpting scheme and a 50 ms spinlock was used to suppress protein background signal. For each experiment, 512 scans were collected to yield a 16K points FID. NMR WaterLOGSY intensity was corrected by plotting the intensity difference of the ligand NMR WaterLOGSY spectra recorded in the presence and absence of protein.
For NMR WaterLOGSY screening experiments a correction factor was applied to account for slight concentration variation between samples. To do so, 8 scans 1H NMR spectra with 50 ms spinlock were recorded before NMR WaterLOGSY experiments. The intensity ratio of the aliphatic region (0.700 ppm to 0.955 ppm) with and without protein was used as a correction factor to compare the NMR WaterLOGSY intensity of the polypeptides of interest with and without LDH subunits. An arbitrary threshold of 0.1, corresponding to a 10% decrease in the NMR WaterLOGSY signal intensity between the spectra with and without protein, was set to discriminate between binders and non-binders.

[3] = linear peptides at 800 μM, LDHBtr 15 μM

Compound	Binding using WaterLOGSY (800 μM) (LDHBtr [2]; [3])	further results
CC[C@H](C)[C@H](NC(=O)[C@H](CC(C)C)NC(=O)[C@H](CCCCN)NC(=O)[C@@H]1CSc2c(F)c(F)c(c(F)c2F)SC[C@H](N)C(=O)N[C@@H]([C@@H](C)O)C(=O)N[C@@H](CC(C)(C)C)C(=O)N[C@@H](CCCCN)C(=O)N1)C(N)=O [CT-44, CT(mlL)KCKLI] (H-CT[tBuAla]KCKLI-NH2; linker 1-5 via C6F4(1,4-diyl); N-terminus assumed)	–	MST binding to LDHBtr (truncated LDHB (LDHBtr)): did not affect the binding properties
CC[C@H](C)[C@H](NC(=O)[C@H](CC1CC1)NC(=O)[C@H](CCCCN)NC(=O)[C@@H]1CSc2c(F)c(F)c(c(F)c2F)SC[C@H](N)C(=O)N[C@@H]([C@@H](C)O)C(=O)N[C@@H](CC(C)C)C(=O)N[C@@H](CCCCN)C(=O)N1)C(N)=O [CT-45, CTLKCK(cpA)I] (H-CTLKCK[Ala(cPr)]I-NH2; linker 1-5 via C6F4(1,4-diyl); N-terminus assumed)	–	MST binding to LDHBtr (truncated LDHB (LDHBtr)): unaltered Kd value, or even a slightly improved Kd value
CC[C@H](C)[C@H](NC(=O)[C@H](C)NC(=O)[C@H](CCCCN)NC(=O)[C@H](CCC(=O)O)NC(=O)[C@H](CCCCN)NC(=O)[C@H](CC(C)C)NC(=O)[C@@H](NC(=O)[C@H](C)N)[C@@H](C)O)C(N)=O [LB8-A6, ATLKEKAI] (H-ATLKEKAI-NH2)	–	Kd (LDHBtr [1]): > 10000 µM
CC[C@H](C)[C@H](NC(=O)[C@H](CC(C)C)NC(=O)[C@H](CCCCN)NC(=O)[C@H](CCC(=O)O)NC(=O)[C@H](CCCCN)NC(=O)CNC(=O)[C@@H](NC(=O)[C@H](C)N)[C@@H](C)O)C(N)=O [LB8-G3, ATGKEKLI] (H-ATGKEKLI-NH2)	–	Kd (LDHBtr [1]): > 10000 µM
CC[C@H](C)[C@H](NC(=O)[C@H](CC(C)C)NC(=O)[C@H](CCCCN)NC(=O)[C@H](CCC(=O)O)NC(=O)[C@@H]1CSCc2cccc(c2)CSC[C@H](N)C(=O)N[C@@H](C)C(=O)N[C@@H]([C@@H](C)O)C(=O)N[C@@H](CC(C)C)C(=O)N1)C(N)=O [MP6, CATLCEKLI] (H-CATLCEKLI-NH2; linker 1-5 via mXylylene)	–	Kd (truncated LDHB (LDHBtr)): > 1000 µM
CC[C@H](C)[C@H](NC(=O)[C@H](CC(C)C)NC(=O)[C@H](CCCCN)NC(=O)[C@@H]1CSCc2ccccc2CSC[C@H](N)C(=O)N[C@@H]([C@@H](C)O)C(=O)N[C@@H](CC(C)C)C(=O)N[C@@H](CCCCN)C(=O)N1)C(N)=O [MP8, CTLKCKLI] (H-CTLKCKLI-NH2; linker 1-5 via oXylylene; N-terminus assumed)	–	Kd (truncated LDHB (LDHBtr)): 25 µM
CC[C@H](C)[C@H](NC(=O)[C@H](CC(C)C)NC(=O)[C@H](CCCCN)NC(=O)[C@@H]1CSCc2ccc(cc2)CSC[C@H](N)C(=O)N[C@@H]([C@@H](C)O)C(=O)N[C@@H](CC(C)C)C(=O)N[C@@H](CCCCN)C(=O)N1)C(N)=O [MP9, CTLKCKLI] (H-CTLKCKLI-NH2; linker 1-5 via pXylylene; N-terminus assumed)	–	Kd (truncated LDHB (LDHBtr)): 113 µM
CC[C@H](C)[C@H](NC(=O)[C@H](CC(C)C)NC(=O)[C@H](CCCCN)NC(=O)[C@@H]1CC(=O)NCCCC[C@H](NC(C)=O)C(=O)N[C@@H]([C@@H](C)O)C(=O)N[C@@H](CC(C)C)C(=O)N[C@@H](CCCCN)C(=O)N1)C(N)=O [MP10, Ac-KTLKDKLI] (Ac-KTLKDKLI-NH2; lactam 1-5)	–	Kd (truncated LDHB (LDHBtr)): 142 µM
CC[C@H](C)[C@H](NC(=O)[C@H](CC(C)C)NC(=O)[C@H](CCCCN)NC(=O)[C@@H]1CCC(=O)N[C@@H](C)C(=O)N[C@@H]([C@@H](C)O)C(=O)N[C@@H](CC(C)C)C(=O)N[C@@H](CCCCN)C(=O)N1)C(N)=O [MP11, ATLKEKLI] (ATLKEKLI-NH2; lactam N-5)	–	Kd (truncated LDHB (LDHBtr)): 465 µM
AALKEKLI [LB8-A1, LB8 structural analogue]	− (non-binders)	–
ACLKECLI [VS-142-BisAlk, cyclic peptide, cysteines alkylated using α,α′ bisbromoxylene]	–	Binding using WaterLOGSY (800 μM) (LDHBtr [2]; cyclic peptides at 800 μM): + (binders)
ACTLKCKLI (linker 2-6 via α,α'‑bisbromoxylene (inferred)) [LT021, cyclic peptide, cysteines alkylated using α,α′ bisbromoxylene]	–	Binding using WaterLOGSY (800 μM) (LDHBtr [2]; cyclic peptides at 800 μM): + (binders)
ATAKEKLI (LB8-A2) [LB8 structural analogue]	+ (binders)	–
ATL(Aib)E(Aib)LI (ATL[Aib]E[Aib]LI; not fully specified (C-terminus)) [LB8-Aib3, LB8 structural analogue]	+ (binders)	–
ATL(Aib)EKLI (ATL[Aib]EKLI; not fully specified (C-terminus)) [LB8-Aib1, LB8 structural analogue]	+ (binders)	–
ATLAEALI (LB8-A3-A5) [LB8 structural analogue]	+ (binders)	–
ATLAEKLI (LB8-A3) [LB8 structural analogue]	+ (binders)	–
ATLKAKLI (LB8-A4) [LB8 structural analogue]	+ (binders)	–
ATLKDQLIYNLLKEEQTPQ (LA19) [linear polypeptide]	+ (binders)	–
ATLKE(Aib)LI (ATLKE[Aib]LI; not fully specified (C-terminus)) [LB8-Aib2, LB8 structural analogue]	+ (binders)	–
ATLKEALI (LB8-A5) [LB8 structural analogue]	+ (binders)	–
ATLKEKL (LB8-AL7) [LB8 structural analogue]	− (non-binders)	–
ATLKEKLA (LB8-A7) [LB8 structural analogue]	+ (binders)	–
ATLKEKLG (LB8-G8) [LB8 structural analogue]	+ (binders)	–
Ac-ATLKEKLI [Ac-LB8, LB8 structural analogue]	+ (binders)	–
Ac-TLKEKLI [LB8-AcTI7, LB8 structural analogue]	− (non-binders)	–
GTLKEKLI (LB8-G1) [LB8 structural analogue]	+ (binders)	–
TLKEKLI (LB8-TI7) [LB8-T17, LB8 structural analogue]	− (non-binders)	–

Now from value to compound, other results behind:

Binding using WaterLOGSY (800 μM) (LDHBtr [2]; [3])	Compound	further results
+ (binders)	CC[C@H](C)[C@H](NC(=O)[C@H](CC(C)C)NC(=O)[C@H](CCCCN)NC(=O)[C@H](CCC(=O)O)NC(=O)[C@H](CCCCN)NC(=O)[C@H](CC(C)C)NC(=O)[C@@H](NC(=O)[C@H](C)N)[C@@H](C)O)C(=O)N[C@@H](C)C(=O)N1CCC[C@H]1C(=O)N[C@H](C(=O)N[C@@H](C)C(=O)N[C@@H](CCC(=O)O)C(N)=O)C(C)C [LB13, ATLKEKLIAPVAE] (H-ATLKEKLIAPVAE-NH2; N-terminus assumed)	NMR WaterLOGSY signal / saturation transfer (LDHBtr [2]): exact same NMR WaterLOGSY spectrum than LB19
+ (binders)	ATLKDQLI [LA8, linear polypeptide]	–
